Positions count from the first letter of the chain named. Names may count otherwise. Values belong to the binder of their own block, whether it stands above or below them.
Columns and labels:
[1] = molecular target: T1, recombinant human IL-7Rα-His6-Fc (human, UniProt P16871 21-239); assay: IL-7/IL-7R neutralisation ELISA; inhibition of IL-7 binding to IL-7R
T1 construct: also called hIL-7R; not shown: His6 tag; Fc (captured by anti-human IgG Fc)
T1 chain: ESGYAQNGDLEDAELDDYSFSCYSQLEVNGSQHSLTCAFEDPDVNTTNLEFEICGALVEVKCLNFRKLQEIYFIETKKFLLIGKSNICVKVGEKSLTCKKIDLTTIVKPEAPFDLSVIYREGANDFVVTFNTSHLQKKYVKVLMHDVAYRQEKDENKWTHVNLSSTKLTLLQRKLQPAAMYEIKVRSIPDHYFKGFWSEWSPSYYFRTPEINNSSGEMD
Description: A 7-point dilution series of the clones was prepared in 1% BSA (at 2× the assay concentration) starting at 300 nM and using a 3.2 dilution factor. […] Block buffer alone was also added to each plate as blank. […] TMB reaction was stopped after 30 minutes. […]

[2] = molecular target: T1, recombinant human IL-7Rα-His6-Fc; assay: IL-7/IL-7Rα-His6-Fc ELISA; inhibition of IL-7 binding to IL-7R

B1: ID-A2U (VHH)
VHH: EVQLVESGGGLVQAGGSLRLSCASSISTFSSDAMGWFRQAPGKEREFLAAIGWSGAVTHYSDSVQGRFTISRDNAKNTVYLQMNSLKSEDTGRYYCAEDYDTDVWQYWGQGTQVTVSS
notes: V7R-2E9 with E23A; produced from E. coli
EC50 [1]: 0.475 nM

B2: ID-A6U (VHH)
VHH: B1 VHH with A23E, F37V
notes: V7R-2E9 with F37V; produced from E. coli
EC50 [1]: 0.194 nM

B3: ID-A4U (VHH)
VHH: B1 VHH with A23E, S24A
notes: V7R-2E9 with S24A; produced from E. coli
EC50 [1]: 0.489 nM

B7: ID-A15U (VHH)
VHH: B1 VHH with A23E, V79L
notes: V7R-2E9 with V79L; produced from E. coli
EC50 [1]: 0.146 nM

B9: ID-A7U (VHH)
VHH: B1 VHH with A23E, E44G, R45L, F47W, L48V, A49S
notes: V7R-2E9 with 44 to 49 EREFLA to GLEWS (so in the source); produced from E. coli
EC50 [1]: 0.513 nM

B10: ID-A27U (VHH)
VHH: B1 VHH with A23E, E44G, R45L, F47W, K87R, S88A
notes: V7R-2E9 with E44G, R45L, F47W, K87R, S88A
EC50 [2]: 0.395 nM

B11: ID-A16U (VHH)
VHH: B1 VHH with A23E, K87R
notes: V7R-2E9 with K87R; produced from E. coli
EC50 [1]: 0.446 nM

B13: ID-A18U (VHH)
VHH: B1 VHH with A23E, S88T
notes: V7R-2E9 with S88T; produced from E. coli
EC50 [1]: 0.214 nM

B14: ID-A17U (VHH)
VHH: B1 VHH with A23E, S88A
notes: V7R-2E9 with S88A; produced from E. coli
EC50 [1]: 0.493 nM

B18: ID-A12U (VHH)
VHH: B1 VHH with A23E, L48V
notes: V7R-2E9 with L48V; produced from E. coli
EC50 [1]: 0.179 nM

B20: ID-A19U (VHH)
VHH: B1 VHH with A23E, G92A
notes: V7R-2E9 with G92A; produced from E. coli
EC50 [1]: 0.188 nM

B22: ID-A11U (VHH)
VHH: B1 VHH with A23E, F47W
notes: V7R-2E9 with F47W; produced from E. coli
EC50 [1]: 0.175 nM

B23: ID-A21U (VHH)
VHH: B1 VHH with A23E, Q113L
notes: V7R-2E9 with Q113L; produced from E. coli
EC50 [1]: 0.436 nM

B24: ID-A26U (VHH)
VHH: B1 VHH with A23E, E44G, R45L, Q65K, K87R, S88A
notes: V7R-2E9 with E44G, R45L, Q65K, K87R, S88A
EC50 [2]: 0.841 nM

Results, then the binder that gave them:

EC50 [1]: 0.15 nM
B4: ID-A14U (VHH)
VHH: B1 VHH with A23E, Q65K
notes: V7R-2E9 with Q65K; produced from E. coli

EC50 [1]: 0.615 nM
B5: ID-A13U (VHH)
VHH: B1 VHH with A23E, A49S
notes: V7R-2E9 with A49S; produced from E. coli

EC50 [1]: 0.604 nM
B6: ID-A8U (VHH)
VHH: B1 VHH with A23E, E44G, R45L, F47W
notes: V7R-2E9 with 44 to 47 EREF to GLEW; produced from E. coli

EC50 [1]: 0.168 nM
B8: ID-A9U (VHH)
VHH: B1 VHH with A23E, E44G
notes: V7R-2E9 with E44G; produced from E. coli

EC50 [2]: 0.835 nM
B12: ID-A25U (VHH)
VHH: B1 VHH with A23E, E44G, F47W, Q65K, K87R, S88A
notes: V7R-2E9 with E44G, F47W, Q65K, K87R, S88A

EC50 [1]: 0.529 nM
B15: ID-A10U (VHH)
VHH: B1 VHH with A23E, R45L
notes: V7R-2E9 with R45L; produced from E. coli

EC50 [1]: 0.49 nM
B16: ID-A5U (VHH)
VHH: B1 VHH with A23E, I26G
notes: V7R-2E9 with I26G; produced from E. coli

EC50 [2]: 0.819 nM
B17: ID-A24U (VHH)
VHH: B1 VHH with A23E, R45L, F47W, Q65K, K87R, S88A
notes: V7R-2E9 with R45L, F47W, Q65K, K87R, S88A

EC50 [2]: 0.854 nM
B19: ID-A23U (VHH)
VHH: B1 VHH with A23E, E44G, R45L, F47W, Q65K, K87R, S88A
notes: V7R-2E9 with E44G, R45L, F47W, Q65K, K87R, S88A

EC50 [1]: 0.139 nM
B21: ID-A20U (VHH)
VHH: B1 VHH with A23E, R93V
notes: V7R-2E9 with R93V; produced from E. coli
